Results published in paper PMC3616719.

Experiments:
Test in all cases: co-sedimentation
[1] = biological target: P0mutII (P0 with I241Q/L248Q in helix II) (Bombyx mori)
[2] = biological target: Bombyx mori ribosomal protein P0 (full-length) (Bombyx mori)
[3] = biological target: P0mutI (P0 with F215Q/V222Q in helix I) (Bombyx mori)

- stoichiometry N (copies of P2 per 50S particle) [1]: 1.14
- stoichiometry N (copies of P2 per 50S particle) [2]: 2.22
- stoichiometry N (copies of P2 per 50S particle) [3]: 1.04
Substance: P1–[32P]P2 heterodimer (complex)
